Measured values taken from publication PMC9512702 (2022).
Like-named read-outs stand apart in the source and are kept apart here.

Columns and labels:
[1] = molecular target: T1, mammalian expressed RBD (mRBD) of SARS-CoV-2 spike (SARS-CoV-2, UniProt P0DTC2 319-541); assay: SPR
[2] = molecular target: T1, mammalian expressed RBD (mRBD) of …; assay: SPR; remark: listed apart in the source

| Binder | koff [1] [s⁻¹] | koff [2] [s⁻¹] |
| --- | --- | --- |
| DKEWILQKIYEAMRLLDELADAEASMRVSDAIYEFMKK (designed binder) [SIH-14] | 0.00028 |  |
| DKEWILQKIYEEMRLLDELADAEASMRVSDEIYEFMKK (designed binder) [SIH-15] |  | 0.00025 |
